Measurements taken from US20180148504A1 (EISAI R AND D MANAGEMENT, published 2018).

Columns and labels:
[1] = molecular target: T1, recombinant purified FRα (ECL assay calibrator) (human, UniProt P15328 25-234); experiment: ECL sandwich on FRα, signal to background; capture 30G6.G6.G4.E9; binder = detection Ab
T1 construct: Calibrator of the ECL sandwich assays; also called FRα calibrator; FRα standard

[2] = molecular target: T2, human folate receptor beta (FRβ), recombinant, C-terminal 6xHis (human, UniProt P14207 17-230, limits assumed); experiment: direct ELISA, plates coated with 1 µg/mL FR isoform, dilution series of culture supernatant
T2 construct: Transiently expressed in 293F cells and purified; coated on ELISA plates
T2 sequence (P14207 other isoform, or with tags, fused parts or gaps limits assumed): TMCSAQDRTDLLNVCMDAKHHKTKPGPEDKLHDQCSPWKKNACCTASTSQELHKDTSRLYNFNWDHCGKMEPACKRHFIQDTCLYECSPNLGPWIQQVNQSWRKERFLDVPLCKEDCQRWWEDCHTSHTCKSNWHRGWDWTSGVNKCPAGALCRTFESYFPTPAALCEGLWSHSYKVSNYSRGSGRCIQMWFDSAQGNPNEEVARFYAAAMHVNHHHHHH

[3] = molecular target: T3, human folate receptor gamma (FRγ), recombinant, C-terminal 6xHis (human, UniProt P41439 23-245, limits assumed); experiment: as above
T3 construct: Transiently expressed in 293F cells and purified; coated on ELISA plates
T3 sequence (P41439 other isoform, or with tags, fused parts or gaps limits assumed): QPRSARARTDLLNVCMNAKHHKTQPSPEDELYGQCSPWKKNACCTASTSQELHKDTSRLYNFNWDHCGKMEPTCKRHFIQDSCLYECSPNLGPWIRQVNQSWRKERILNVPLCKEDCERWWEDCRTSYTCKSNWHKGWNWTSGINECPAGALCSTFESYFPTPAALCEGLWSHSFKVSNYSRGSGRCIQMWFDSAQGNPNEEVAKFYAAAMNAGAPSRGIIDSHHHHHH

[4] = molecular target: T1, recombinant purified FRα (ECL assay …); experiment: ECL sandwich on FRα, signal to background; capture 26A9.C4; binder = detection Ab
[5] = molecular target: T1, recombinant purified FRα (ECL assay …); experiment: ECL sandwich, FRα calibrator; capture 19D4.B7; binder = detection Ab
[6] = molecular target: T1, recombinant purified FRα (ECL assay …); experiment: ECL sandwich, FRα calibrator; capture 24H8.D3; binder = detection Ab
[7] = molecular target: T1, recombinant purified FRα (ECL assay …); experiment: ECL sandwich on FRα, signal to background; capture 2F11.F8; binder = detection Ab
[8] = molecular target: T1, recombinant purified FRα (ECL assay …); experiment: ECL sandwich, FRα calibrator; capture 26A9.C4; binder = detection Ab
[9] = molecular target: T1, recombinant purified FRα (ECL assay …); experiment: ECL sandwich, FRα calibrator; capture 2F11.F8; binder = detection Ab
[10] = molecular target: T1, recombinant purified FRα (ECL assay …); experiment: ECL sandwich on FRα, signal to background; capture 1A8.G11.E7; binder = detection Ab
[11] = molecular target: T1, recombinant purified FRα (ECL assay …); experiment: ECL sandwich, FRα calibrator; capture 1D2.G8.G10; binder = detection Ab
[12] = molecular target: T1, recombinant purified FRα (ECL assay …); experiment: ECL sandwich, FRα calibrator; capture 1A8.G11.E7; binder = detection Ab
[13] = molecular target: T1, recombinant purified FRα (ECL assay …); experiment: ECL sandwich on FRα, signal to background; capture 1D2.G8.G10; binder = detection Ab
[14] = molecular target: T1, recombinant purified FRα (ECL assay …); experiment: ECL sandwich, FRα calibrator; capture 5C12.H8; binder = detection Ab
[15] = molecular target: T1, recombinant purified FRα (ECL assay …); experiment: ECL sandwich, FRα calibrator; capture 19D2.G9; binder = detection Ab
[16] = molecular target: T1, recombinant purified FRα (ECL assay …); experiment: ECL sandwich on FRα, signal to background; capture 5C12.H8; binder = detection Ab
[17] = molecular target: T1, recombinant purified FRα (ECL assay …); experiment: ECL sandwich on FRα, signal to background; capture 19D4.B7; binder = detection Ab
[18] = molecular target: T1, recombinant purified FRα (ECL assay …); experiment: ECL sandwich on FRα, signal to background; capture 24H8.D3; binder = detection Ab
[19] = molecular target: T1, recombinant purified FRα (ECL assay …); experiment: ECL sandwich, FRα calibrator; capture 28H12.G9; binder = detection Ab
[20] = molecular target: T1, recombinant purified FRα (ECL assay …); experiment: ECL sandwich, FRα calibrator; capture 24H8.F3; binder = detection Ab
[21] = molecular target: T1, recombinant purified FRα (ECL assay …); experiment: ECL sandwich, FRα calibrator; capture 6A2.G7; binder = detection Ab
[22] = molecular target: T1, recombinant purified FRα (ECL assay …); experiment: ECL sandwich on FRα, signal to background; capture 19D2.G9; binder = detection Ab
[23] = molecular target: T1, recombinant purified FRα (ECL assay …); experiment: ECL sandwich on FRα, signal to background; capture 28H12.G9; binder = detection Ab
[24] = molecular target: T1, recombinant purified FRα (ECL assay …); experiment: ECL sandwich, FRα calibrator; capture 1C6.E12.G8; binder = detection Ab
[25] = molecular target: T1, recombinant purified FRα (ECL assay …); experiment: ECL sandwich on FRα, signal to background; capture 1C6.E12.G8; binder = detection Ab
[26] = molecular target: T1, recombinant purified FRα (ECL assay …); experiment: ECL sandwich on FRα, signal to background; capture 6A2.G7; binder = detection Ab
[27] = molecular target: T1, recombinant purified FRα (ECL assay …); experiment: ECL sandwich on FRα, signal to background; capture 24H8.F3; binder = detection Ab
[28] = molecular target: T1, recombinant purified FRα (ECL assay …); experiment: ECL sandwich, FRα calibrator; capture 30G6.G6.G4.E9; binder = detection Ab

T1 sequence (P15328 25-234 limits assumed): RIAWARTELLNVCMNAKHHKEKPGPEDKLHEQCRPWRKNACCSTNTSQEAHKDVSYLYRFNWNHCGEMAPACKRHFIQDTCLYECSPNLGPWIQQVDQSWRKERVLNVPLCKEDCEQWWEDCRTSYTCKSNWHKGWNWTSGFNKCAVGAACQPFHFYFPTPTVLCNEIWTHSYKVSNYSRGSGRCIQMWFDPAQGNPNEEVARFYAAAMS

Binder | Average of S/B [1] | binding result [2] | binding result [3] | Average of S/B [4] | Specific signal at 500 pg/mL [5] | Specific signal at 500 pg/mL [6] | Average of S/B [7] | Specific signal at 500 pg/mL [8] | Specific signal at 500 pg/mL [9] | Average of S/B [10] | Specific signal at 500 pg/mL [11] | Specific signal at 500 pg/mL [12] | Average of S/B [13] | Specific signal at 500 pg/mL [14] | Specific signal at 500 pg/mL [15] | Average of S/B [16] | Average of S/B [17] | Average of S/B [18] | Specific signal at 500 pg/mL [19] | Specific signal at 500 pg/mL [20] | also measured
Monoclonal antibody 26A9.C4 (antibody, mouse IgG1, V domains shown, Murine IgG1 kappa from hybridoma; also called ATCC PTA-123092) VH: SGARELVKPGASVKLSCKTSGFTFSSSFISWLKQKPGQSLEWIAWIYGGNGGTSYNQNFTGKAQLTVDTSSSTAYMQFSSLTTEDSAVYYCASETYGNYWYFDVWGAGTTVTVSS VL: QSPASLSASVGDTVTITCRASGNIHNYLAWYQQKQGKSPQLLVYNAKTLADGVPSRFSGSGSGTQYSLKINSLQPEDFGNYYCQHFWSTPYTFGGGTKLEIK | 114 | no binding | no binding | 1 | 16500 | 59 | 1 | 79 | 61 | 1 | 64 | 62 | 1 | 68 | 79 | 1 | 250 | 1 | 62 | 56 | Specific signal at 500 pg/mL [21]: 361; Average of S/B [22]: 1; Average of S/B [23]: 1; Specific signal at 500 pg/mL [24]: 58; Average of S/B [25]: 1; Average of S/B [26]: 6; Average of S/B [27]: 1; Specific signal at 500 pg/mL [28]: 6710
Monoclonal antibody 24H8.D3 (antibody, mouse IgG1, V domains shown, Biotin-conjugated when used as capture antibody in the ECL assay; also called ATCC PTA-123090) VH: QVQLKESGPGLVAPSQSLSITCTVSGFSLTSYGVSWVRQPPGKGLEWLGVIWGDGSTNYHSTLISRLSISKDNSKSQVFLKLNSLQTDDTATYYCAKPHPAATGAMDYWGQGTSVTVSS VL: DIQMTQTTSSLSASLGDRVTISCRASQDISNHLNWYQQKPDGTIKLLIYYTSKLHSGVPSRFSGSGSGTDYSLTISNLEQEDIATYFCQQGNTLWTFGGGTKLEIK | 273 | no binding | no binding | 1 | 40500 | 69 | 1 | 81 | 64 | 1 | 52 | 71 | 1 | 69 | 110 | 1 | 332 | 1 | 97 | 88 | Specific signal at 500 pg/mL [21]: 1930; Average of S/B [22]: 2; Average of S/B [23]: 1; Specific signal at 500 pg/mL [24]: 59; Average of S/B [25]: 1; Average of S/B [26]: 38; Average of S/B [27]: 1; Specific signal at 500 pg/mL [28]: 20300
Monoclonal antibody 30G6.G6.G4.E9 (antibody, mouse IgG1, V domains shown, Murine IgG1 kappa from hybridoma; also called ATCC PTA-123096) VH: GPGLVAPSQSLSITCTVSGFSLTSYGVHWVRQPPGKGLEWLGVIWAGGITNYNSALMSRLSISKDNSKSQVFLKMNSLQTDDTAMYYCARIYYDYDAWFAYWGQGTLVTVSA VL: not shown |  | no binding | no binding |  |  |  |  |  |  |  |  |  |  |  |  |  |  |  |  |  | 
Monoclonal antibody 2F11.F8 (antibody, mouse IgG1, V domains shown, Murine IgG1 kappa from hybridoma; also called ATCC PTA-123098 (so in the source)) VH: ESGPGLVKPSQSLSLTCSVTGYSITSGYYWIWIRQFPGNKLEWMGYINYDGSNNYNPSLKNRISITRDTSKNQFFLKLNSVTTEDTATYYCARGNYYAMDYWGQGTSVTVSS VL: not shown | 81 | no binding | no binding | 1 | 26500 | 59 | 1 | 69 | 179 | 1 | 60 | 65 | 1 | 53 | 71 | 1 | 338 | 1 | 73 | 54 | Specific signal at 500 pg/mL [21]: 1180; Average of S/B [22]: 1; Average of S/B [23]: 1; Specific signal at 500 pg/mL [24]: 56; Average of S/B [25]: 1; Average of S/B [26]: 23; Average of S/B [27]: 1; Specific signal at 500 pg/mL [28]: 6790
Monoclonal antibody 19D4.B7 (antibody, mouse IgG2a, V domains shown, SULFO-TAG conjugated when used as detection antibody in the ECL assay; also called ATCC PTA-11884) VH: GARELVKPGASVKLSCTASGFNIKHPYMHWVKQRPDQGLEWIGRIDPANGNTKYDPKFQGKATITADTSSNTAYLQLSSLTSEDTAVYYCGREEVADYTMDYWGQGTSVTVSS VL: PASLAVSLGQRATISCRASESVDTYGNNFIHWYQQKPGQPPKLLIYLASNLESGVPARFSGSGSRTDFTLTIDPVEADDAATYYCQQNNGDPWTFGGGTKLEIKR | 1 |  |  | 34 | 87 | 49100 | 17 | 2630 | 1260 | 405 | 1970 | 58700 | 29 | 320 | 65500 | 5 | 1 | 361 | 1220 | 19100 | Specific signal at 500 pg/mL [21]: 4960; Average of S/B [22]: 560; Average of S/B [23]: 17; Specific signal at 500 pg/mL [24]: 2020; Average of S/B [25]: 28; Average of S/B [26]: 82; Average of S/B [27]: 207; Specific signal at 500 pg/mL [28]: 81
